Measurements reported in patent US20260167959A1, “APTAZYME-BASED REGULATABLE GENE EXPRESSION SYSTEMS” (REJUVENATE BIO INC, priority 2022, published 2026).

Tests used:
Renilla luciferase RNA = assay: Barcoded aptazyme variant library screen: un-cleaved Renilla luciferase RNA by barcode read counts, HEK293-T cells; type: cell-based; settings: un-cleaved Renilla luciferase RNA, HEK293-T cells cultured with 1 mM theophylline (ON) over without theophylline (OFF); barcode read counts, triplicate
Outline: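 Aptazyme variants (seven theophylline aptamers inserted after each T3H48 ribozyme nucleotide, 9-nt barcoded) cloned into the 3′ UTR of Renilla luciferase in psiCHECK-2; cells cultured ± theophylline, in triplicate. RNA and DNA barcodes amplified and sequenced; normalized read counts gave un-cleaved RNA fraction and ON/OFF fold-change.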

GFP = settings: HEK293-T cells, dual FP plasmid, 24 hours post-transfection
Experimental: The theophylline inducible aptazymes in Table 4 were tested using a dual fluorescent protein (FP) expression system.
The plasmids were transfected into HEK293-T cells, and the transfected cells were treated with (“ON”) or without (“OFF”) theophylline, as described in Example 1. Green FP (GFP) expression was measured as relative units 24 hours post-transfection (FIG. 4). […] The negative control used was cells transfected with analogous dual FP plasmid containing only the ribozyme sequence, and represented the maximal “OFF” state possible for the ribozyme.

Row | Molecule | Fold change in RNA expression between the ON state and the OFF state (Renilla luciferase RNA) [fold] | Fold-change in GFP expression, presence of theophylline over absence of theophylline (GFP) [×]
1 | RA245 (nucleic acid, expressed or natural sequence) DNA: GGGAATACCAGCATCGTCTTGATGCCCTTGGAAGTCCCGCGTCCTGGATTCGCGGAAACGCGTACATCCAGCTGACGAGTCCCAAATAGGACGAAACGCGC | 1.1 | –
2 | RA249 (nucleic acid, expressed or natural sequence) DNA: GCGCGTCCTGGATTCGCGGAAACGCGTACATCCACCGGAATACCAGCATCGTCTTGATGCCCTTGGAAGTCCGGGCTGACGAGTCCCAAATAGGACGAAACGCGC | 1.1 | –
3 | RA248 (nucleic acid, expressed or natural sequence) DNA: GCGCGTCCTGGATTCGCGGAAACGCGTACATCCAGCTGACGAGTCCAGTGATACCAGCATCGTCTTGATGCCCTTGGCAGCACTCAAATAGGACGAAACGCGC | 1.1 | –
4 | RA024 (nucleic acid, expressed or natural sequence) DNA: GCGCGTCCTGGATTCGCGGAAACGCGTACATCCAGCTGACGAGTCCCAAATAGGACAGTGATACCAGCATCGTCTTGATGCCCTTGGCAGCACTGAAACGCGC | 2.6 | –
5 | RA246 (nucleic acid, expressed or natural sequence) DNA: GCGCGTCCTGGATTCGCGGAGAATACCAGCATCGTCTTGATGCCCTTGGAAGTCTCGAAACGCGTACATCCAGCTGACGAGTCCCAAATAGGACGAAACGCGC | 1.1 | –
6 | RA250 (nucleic acid, expressed or natural sequence) DNA: GCGCGAGTGATACCAGCATCGTCTTGATGCCCTTGGCAGCACTTCCTGGATTCGCGGAAACGCGTACATCCAGCTGACGAGTCCCAAATAGGACGAAACGCGC | 1.1 | –
7 | RA210: SEQ ID NO 210; theophylline inducible aptazyme (nucleic acid, chemistry not given here, theophylline inducible aptazyme) GCTGTCACCGGAATACCAGCATCGTCTTGATGCCCTTGGAAGTCCGGTCTGATGAGTCCAAAAAGGACGAAACAGC | 1.2 | 2.55
8 | RA244 (nucleic acid, expressed or natural sequence) DNA: GCGCGTCCTGGATTCGCGGAAACGCGTCCGGAATACCAGCATCGTCTTGATGCCCTTGGAAGTCCGGACATCCAGCTGACGAGTCCCAAATAGGACGAAACGCGC | 1.1 | –
9 | RA247 (nucleic acid, expressed or natural sequence) DNA: GCGCGTCCTGGATTCGCGGAAACGCGTACATCCAGCTGAGGAATACCAGCATCGTCTTGATGCCCTTGGAAGTCCCGAGTCCCAAATAGGACGAAACGCGC | 1.1 | –
